{"source": "paper PMC8371691", "target": "N-terminal(Lon)-LotP.His ('Candidatus Liberibacter asiaticus')", "experiment": "SEC"}
{"substance": "N-terminal(Lon)-LotP.His", "values": [{"measurement": "stoichiometry N", "value": 2}]}
